In patent US20250163130A1, “LIGAND GATED ION CHANNELS AND METHODS OF USE” (Trames Bio, Inc., priority 2022, published 2025):

B1: CODA1055: α7-nAChR(Gly-cys) LBD: GlyRα1 IPD, SEQ ID NO: 33 comprising R101W, Y115E, Y210W mutations (protein)
chain: MRCSPGGVWLALAASLLHVSLQGEFQRKLYKELVKNYNPLERPVANDSQPLTVYFSLSLLQIMDVDEKNQVLTTNIWLQMSWTDHYLQWNVSEYPGVKTVWFPDGQIWKPDILLENSADERFDATFHTNVLVNSSGHCQYLPPGIFKSSCPMDLKNFPMDVQTCKLKFGSWSYGGWSLDLQMQEADISGYIPNGEWDLVGIPGKRSERFWECCKEPYPDVTFTVTMRRRMGYYLIQMYIPSLLIVILSWISFWINMDAAPARVGLGITTVLTMTTQSSGSRASLPKVSYVKAIDIWMAVCLLFVFSALLEYAAVNFVSRQHKELLRFRRKRRHHKSPMLNLFQEDEAGEGRFNFSAYGMGPACLQAKDGISVKGANNSNTTNPPPAPSKSPEEMRKLFIQRAKKIDKISRIGFPMAFLIFNMFYWIIYKIVRREDVHNQ
modifications: synthetic sequence of chimeric LGIC
B2: CODA1316: α7-nAChR(Gly-cys) LBD: GlyRα2 IPD, SEQ ID NO: 65 comprising R101W, Y115E, Y210W, T225I mutations (protein)
chain: MRCSPGGVWLALAASLLHVSLQGEFQRKLYKELVKNYNPLERPVANDSQPLTVYFSLSLLQIMDVDEKNQVLTTNIWLQMSWTDHYLQWNVSEYPGVKTVWFPDGQIWKPDILLENSADERFDATFHTNVLVNSSGHCQYLPPGIFKSSCPMDLKNFPMDVQTCKLKFGSWSYGGWSLDLQMQEADISGYIPNGEWDLVGIPGKRSERFWECCKEPYPDVTFTVIMRRRMGYYLIQMYIPSLLIVILSWVSFWINMDAAPARVALGITTVLTMTTQSSGSRASLPKVSYVKAIDIWMAVCLLFVFAALLEYAAVNFVSRQHKEFLRLRRRQKRQNKEEDVTRESRFNFSGYGMGHCLQVKDGTAVKATPANPLPQPPKDGDAIKKKFVDRAKRIDTISRAAFPLAFLIFNIFYWITYKIIRHEDVHKK
modifications: CHRNA7 (Cys-loop)/GLRA2

Experiments:
CODA1237 = molecular target: T1, CODA1237 (Homo sapiens, UniProt P36544, F159M/H163T/I152M/R155K/V154L/W156N/Y151P); assay: Anion reporter (YFP quench) plate assay, ligand response of cells expressing CODA1237 compared with CODA71; assay type: cell-based; conditions: FIG. 1, various ligand doses
T1 construct: expressed in transfected cells; host or cells: Lenti-X 293T (LX293T, Clontech) stably expressing mutant YFP (H148Q/I152L) reporter

[1] = tested on: rat model of neuropathic pain; assay: Spared nerve injury (SNI) rat model of neuropathic pain, mechanical withdrawal threshold; assay type: in vivo; conditions: SNI rats injected with AAV.hSYN encoding engineered receptor; repeat IP injection on the third day
Method: The engineered receptors disclosed herein are assessed for their ability to provide analgesia in a rat model of neuropathic pain following administration of a small molecule ligand. AAV expression cassettes containing a human synapsin-1 (hSYN) promoter linked to polynucleotides encoding either a wild type α7-nAChR, or any one of the engineered chimeric receptors disclosed herein are constructed using standard molecular biology techniques.
Behavioral experiments and pain models: To produce mechanical hypersensitivity in a model that mimics a neuropathic pain condition, the spared nerve injury (SNI) model (a validated model of mechanical allodynia) is used (Shields et al., 2003, The Journal of Pain, 4, 465-470). This model is produced by the sectioning of the common peroneal and the sural nerves and isolating the tibial branch. Mechanical withdrawal threshold is assessed by placing rats on an elevated wire-mesh grid and stimulating the plantar surface of the hind paw with von Frey filaments.
Effects of administration: This SNI model is produced by the sectioning of the common peroneal and the sural nerves and isolating the tibial branch of the rat. […] The duration that the rat spends on the rotarod is recorded, with a cut-off at 300 sec. […]

HEK cells [2] = assay: Peak current measurement on IonFlux in HEK cells; assay type: cell-based; conditions: held at −60 mV
Method: HEK 293 cells were routinely subcultured in DMEM with 10% fetal bovine serum (ThermoFisher Scientific). Cells were plated in 15 cm dishes 24 hours prior to transfection with Fugene 6 (Promega, E2691) and plasmid DNA (total of 20 μg DNA). 24 hours post transfection, cells were lifted with Accutase (Sigma, A6964) then resuspended in serum free media (CHO—S-SFM II, ThermoFisher Scientific 12052 with 25 mM HEPES, ThermoFisher Scientific, 15630080) to rest for 30-90 min before being loaded onto IonFlux (Fluxion Biosciences) for experiments. Recordings were made in extracellular solution (ECS) containing (in mM): 140 sodium chloride (S7653), 4 potassium chloride (P9333), 1 magnesium chloride (M2670), 2 calcium chloride (C3881), 10 HEPES (54457), and 10 D-(+)-glucose (G7528) (pH=7.3 with sodium hydroxide, osmolarity=305-315 mOsm). Intracellular solution (ICS) contains (in mM): 140 cesium chloride (289329), 5 potassium fluoride (60238), 2 Calcium chloride (P9333), 2 magnesium chloride (M2670), 10 HEPES (54457), and 10 EGTA (3777) (pH=7.2 with cesium hydroxide, osmolarity=290-295 mOsm).
Drug-induced currents were recorded in ensemble mode (20 cells are patched per recording channel). Cells were held at −60 mV and current across the membrane was recorded at 1 kHz sampling rate. Drugs tested include acetycholine chloride (A6625) and other synthetic compounds. […]

HEK cells [3] = assay: Peak current measurement by manual patch clamp in HEK cells; assay type: cell-based; conditions: held at −60 mV
Method: Cell culture: HEK 293 cells were routinely subcultured in DMEM with 10% fetal bovine serum (ThermoFisher Scientific). Cells were plated in six-well dishes 24 hours prior to transfection with Fugene 6 (Promega, E2691) and plasmid DNA (total of 1 μg DNA). 24 hours post transfection, cells were replated onto 10 mm PDL and collagen coated coverslips, before being used for patch clamp experiments 24-48 hours later. For dorsal root ganglion neuron experiments, adult rat lumbar ganglia were harvested and dissociated according to standard protocols, cultured on glass coverslips coated with poly-L-lysine and mouse laminin, transduced on DIV1 with ires-GFP-containing lentiviral or AAV6 vectors, and processed for immunocytochemistry on DIV7. For hippocampal neuron experiments, hippocampi were harvested from embryonic day 18 rat pups or postnatal day 0 mouse pups and dissociated according to standard protocols. […]
Whole-cell patch clamp recording protocol: Cells plated on coverslips were visualized at 10× and 40× on an inverted fluorescence microscope (Olympus). […] Traces were either analyzed in Clampfit (Molecular Devices) or using custom Python code. […]
Dose-response experiments: Drug-induced currents were recorded in voltage clamp mode. […]

HEK cells [4] = assay: TC-5619 / acetylcholine dose response and peak current of engineered receptors in HEK cells (FIGS. 5C-5F); assay type: cell-based; conditions: for Response to TC-5619 (dose response), compared with CODA71: FIGS. 5C-5E

T1 sequence (P36544 with tags, fused parts or gaps Y151P/I152M/V154L/R155K/W156N/F159M/H163T): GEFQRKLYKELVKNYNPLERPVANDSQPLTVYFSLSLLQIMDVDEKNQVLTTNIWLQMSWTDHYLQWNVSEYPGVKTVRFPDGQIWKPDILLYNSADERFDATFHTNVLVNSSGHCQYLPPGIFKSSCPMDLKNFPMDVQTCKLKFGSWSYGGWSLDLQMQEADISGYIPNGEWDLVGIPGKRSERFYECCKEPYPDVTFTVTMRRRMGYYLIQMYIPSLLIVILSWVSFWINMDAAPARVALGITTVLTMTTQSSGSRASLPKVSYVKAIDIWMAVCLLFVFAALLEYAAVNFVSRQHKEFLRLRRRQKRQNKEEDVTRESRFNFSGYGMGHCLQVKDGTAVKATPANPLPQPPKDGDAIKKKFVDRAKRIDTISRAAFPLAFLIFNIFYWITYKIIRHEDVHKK

| Molecule | Responsiveness (percent quench of YFP fluorescence) of cells expressing CODA1237 compared with cells expressing CODA71 (CODA1237) | Mechanical withdrawal thresholds (up-down method) after IP injection of ligand [1] | Peak Current on IonFlux in HEK Cells (HEK cells [2]) | Peak Current on Manual Patch Clamp in HEK cells (HEK cells [3]) | Response to acetylcholine (dose response), compared with CODA71 (HEK cells [4]; FIGS. 5C-5D) | Response to TC-5619 (dose response), compared with CODA71 (HEK cells [4]) | Peak current when activated by TC-5619, compared with CODA1055 (HEK cells [4]; FIG. 5F) |
| --- | --- | --- | --- | --- | --- | --- | --- |
| c1cnc2c(c1)C[C@@]1(CN3CCC1CC3)O2 [AZD-0328] | more responsive | recovery to non-injury baseline thresholds | – | – | – | – | – |
| B1 | – | – | −5074.3 picoamps (pA) | −2176.6 picoamps (pA) | reduced response | increased response | – |
| B2 | – | – | −5520.5 picoamps (pA) | −2779 picoamps (pA) | – | increased response | increased peak current |
